Data from patent US20130330294A1, “Serum Amyloid A (SAA) Overrides Regulatory T Cells (TREG) Anergy” (The Board of Trustees of the Leland Stanford Junior …, priority 2010, published 2013).

How the values were obtained:
SOCS3 in Treg = assay: SOCS3 expression in forskolin-treated Treg by intracellular staining; format: cell-based, human; conditions: after 24 hour stimulation
Protocol: To evaluate effects of plasma on suppression assays and immune cell cultures, frozen plasma samples were thawed at 25° C. and debris were removed with sterile 40 μm filters (BD Biosciences). All plasma samples were tested in duplicates or triplicates. To control for variations in suppressive and proliferative potentials of Treg and Teff, respectively, both HC and SJIA plasma samples were used in parallel suppression assays with the same set of purified cells for each round of experiments. In addition, fold change in 3H-thymidine cpm in assays with plasma compared to those in complete media alone, was computed to analyze the effects of plasma in suppression assays or stimulation assays. In CFSE assays, percentage of proliferating cells (shown by dye dilution) was used to analyze the effects of plasma on cell proliferation. IL-1Ra, neutralizing antibody against IL-6 and TNF-α (R&D System), and recombinant IL-1, IL-6 (Peprotech) were used to evaluate the roles of these cytokines in suppression assays. Recombinant SAA (Peprotech) was used at different concentrations in suppression assays in the presence of polymixin (5 μg/ml). […] To pharmacologically modulate SOCS3, isolated Treg were cultured with forskolin (Calbiochem) at different concentrations and analyzed for SOCS3 expression at different time points. […]

[1] = system: pERK1/2, pAKT, pSTAT3 in Treg and Teff; assay: Phosphorylation of ERK1/2, AKT and STAT3 in Treg and Teff in suppression assays by FACS; format: cell-based, human; conditions: assays with SJIA plasma, day 4; IL-1 RA 1 μM, anti-IL-6 1 μg/ml
Protocol: (§1) Detection of surface markers and intracellular molecules was performed. Antibodies used in these experiments included anti-human RAGE, SOCS3 (Abcam), CD14-FITC, DR-FITC, Foxp3-FITC, Lin (mixture of CD3, CD14, CD16, CD19, CD56)-FITC, CD14-PE, CD25-PE, CD40-PE, CD83-PE, CD127-PE, HVEM-PE, PDL2-PE, IL-1-PE, IL-6-PE, CD3-PerCP, CD4-PerCP, CD19-PerCP, CD25-PerCP, DR-PerCP, Lin-PerCP, CD3-APC, CD4-APC, CD14-APC, CD36-APC, CD86-APC, TLR2-APC, TLR4-APC, PDL1-APC, CCR7-APC, IL-6-APC, Lin-APC (Biolegend), Ki-67 FITC, pSTAT3 Alexa-647, pAKT Alexa-647, pERK1/2 Alexa-647 (BD Biosciences), and FPRL-1-APC(R&D System). Antibodies to mouse proteins used in these experiments included anti-CD25-PE, CD4-PerCP, CD11b-PerCP, CD115-APC, and Foxp3-APC (Biolegend). For in vitro experiments, to assay for expression of different surface and intracellular molecules in a specific cell subset (Treg, Teff or APC) in mixed cell cultures, the relevant subset was labeled with CFSE prior to suppression assays. Cells were pelleted at various time points and underwent standard staining protocols of the manufacturers. For in vivo experiments, cells were harvested from the peritoneal cavity and underwent flow cytometric analysis.

Treg and Teff [2] = assay: CFSE-based Treg suppression assay with APC; format: cell-based, human
Protocol: Carboxyfluorescein diacetate succinimidyl ester (CFSE) dilution assay was used for measuring T cell proliferation in suppression assays. Briefly, Treg were labeled with CFSE using Cell Tracer CFSE Cell Proliferation kit (Molecular Probes) at a final concentration of 10 μM, according to manufacturer's instructions. Assays with labeled cells were performed as described for 3H-thymidine-based suppression assays. After 7 days of culture, cells were harvested and dye dilution was analyzed by flow cytometry. Stimulation assays were set up similarly with allogeneic irradiated APC and only one type of CFSE-labeled T cells (either Treg or Teff). For APC fixation, these cells were first re-suspended in PBS+10% FBS+1% paraformaldehyde for […] at 37° C. Fixed cells were pelleted by centrifugation, washed and then cultured in complete media.
To evaluate effects of plasma on suppression assays and immune cell cultures, frozen plasma samples were thawed at 25° C. and debris were removed with sterile 40 μm filters (BD Biosciences). All plasma samples were tested in duplicates or triplicates. To control for variations in suppressive and proliferative potentials of Treg and Teff, respectively, both HC and SJIA plasma samples were used in parallel suppression assays with the same set of purified cells for each round of experiments. In addition, fold change in 3H-thymidine cpm in assays with plasma compared to those in complete media alone, was computed to analyze the effects of plasma in suppression assays or stimulation assays. In CFSE assays, percentage of proliferating cells (shown by dye dilution) was used to analyze the effects of plasma on cell proliferation. IL-1Ra, neutralizing antibody against IL-6 and TNF-α (R&D System), and recombinant IL-1, IL-6 (Peprotech) were used to evaluate the roles of these cytokines in suppression assays. […] To pharmacologically modulate SOCS3, isolated Treg were cultured with forskolin (Calbiochem) at different concentrations and analyzed for SOCS3 expression at different time points.

[3] = system: APC, monocytes and B cells; assay: Secreted and intracellular cytokines in suppression assays, APC, monocyte and B cell cultures; format: cell-based, human; conditions: 25 μg/ml, polymixin 5 μg/ml, 24 hours
Protocol: Both suppression assays and APC cultures were set up for supernatant collection. For APC cultures, 50 μl of APC stock solution (750,000 cells per ml) were incubated in a final volume of 200 μl per well in complete media. Plasma samples were used at 35 μl per well. At different time points, supernatants were collected after centrifugation to pellet cells; supernatants representing samples from the same experimental conditions were pooled from 6 wells of 96-well plates and stored at −80° C. until analysis. To detect cytokines in the supernatants, cytometric bead arrays (BD Biosciences) and ELISA (R&D System) were used according to manufacturers' protocols. Similar assays were performed for plasma samples from HC and SJIA subjects.
Detection of surface markers and intracellular molecules was performed. Antibodies used in these experiments included anti-human RAGE, SOCS3 (Abcam), CD14-FITC, DR-FITC, Foxp3-FITC, Lin (mixture of CD3, CD14, CD16, CD19, CD56)-FITC, CD14-PE, CD25-PE, CD40-PE, CD83-PE, CD127-PE, HVEM-PE, PDL2-PE, IL-1-PE, IL-6-PE, CD3-PerCP, CD4-PerCP, CD19-PerCP, CD25-PerCP, DR-PerCP, Lin-PerCP, CD3-APC, CD4-APC, CD14-APC, CD36-APC, CD86-APC, TLR2-APC, TLR4-APC, PDL1-APC, CCR7-APC, IL-6-APC, Lin-APC (Biolegend), Ki-67 FITC, pSTAT3 Alexa-647, pAKT Alexa-647, pERK1/2 Alexa-647 (BD Biosciences), and FPRL-1-APC(R&D System). […]

Treg and Teff [4] = assay: Suppression assay without APC (anti-CD3 and anti-CD28 as T cell stimuli); format: cell-based, human; conditions: recombinant SAA 25 μg/ml
Protocol: Standard 3H-thymidine-based suppression assays were performed to analyze Treg function. Autologous Treg and Teff were cultured at 3,750 cells per 50 μl per well in complete media (RPMI+10% FBS+1% L-glutamine) with allogeneic irradiated CD3-depleted peripheral blood mononuclear cells (antigen presenting cells or APC), at 37,500 cells per 50 μl per well. Anti-CD3 antibodies (clone UCHT1, BD Biosciences) were pre-coated on U-bottom 96 well plates at 5 μg/ml for 4 hours at 37° C. before suppression assays. Additional media was added so the final volume in each well was 200 μl. On day 6, cells were pulsed with 1 μCi 3H-thymidine (25 μl) per well and harvested on day 7 with a Tomtec cell harvester. 3H-thymidine incorporation was determined using a 1450 microbeta Wallac Trilux liquid scintillation counter. […] Stimulation assays were set up similarly with allogeneic irradiated APC and only one type of T cell (either Treg or Teff). All assays were performed in triplicates. For suppression assays without APC, anti-CD3 antibodies at 5 μg/ml final concentration (clone UCHT1, BD Biosciences) were plate-bound in U-bottom 96-well plates for 4 hours at 37° C. Soluble anti-CD28 (5 μg/ml, BD Biosciences) was added, followed by Teff (40,000 cells per 50 μl per well) and Treg (40,000 cells per 50 μl per well). […]

peritoneal Treg and Teff = assay: In vivo effects of SAA on Treg frequency and proliferation (intraperitoneal injection); design: species or system C57B6 mice; conditions: 16 hours
Protocol: as §1, with “C57B6 mice (male, 8 to 10 weeks old) were purchased from Jackson Laboratory. Mice were injected intraperitoneally with recombinant human SAA (Peprotech, 30 μg in 100 μl PBS), purified human serum albumin (Sigma Aldrich, 30 μg in 100 μl PBS), or endotoxin (Sigma Aldrich, 0.25 ng in 100 μl PBS). Animals were sacrificed 16 hours later; peritoneal cells were harvested and stained for surface and intracellular markers to detect Treg frequency and proliferation. In vivo depletion of monocytes was performed with clodronate liposomes (Encapsula). In these experiments, 400 μl of clodronate or empty liposomes were injected intraperitoneally 24 hours before SAA injection. Detection” for “Detection”, “[…],” for “CD127-PE, HVEM-PE, PDL2-PE, IL-1-PE, IL-6-PE,”

[5] = in the presence of polymixin (5 μg/ml)

C=C[C@@]1(C)CC(=O)[C@]2(O)[C@@]3(C)[C@@H](O)CCC(C)(C)[C@@H]3[C@H](O)[C@H](OC(C)=O)[C@@]2(C)O1 [forskolin]
optimal dosing for SOCS3 induction in Treg (SOCS3 in Treg): 100 µM

IL-1Ra: IL-1 receptor antagonist (R&D System)
phosphorylated ERK1/2 in Treg with blocking reagent [1]: abrogated the increased expression | phosphorylation of AKT in Treg with blocking reagent [1]: inhibited phosphorylation of AKT | inhibition of SJIA plasma-induced Treg proliferation (Treg and Teff [2]; suppression assays with SJIA plasma, various concentrations, IL-1 Ra 1 μM, antibodies 1 μg/ml): significant inhibition

B1: recombinant human SAA (protein, UniProt P0DJI8 19-122, looked up)
Serum amyloid A-1 protein: RSFFSFLGEAFDGARDMWRAYSDMREANYIGSDKYFHARGNYDAAKRGPGGAWAAEVITDARENIQRFFGHGAEDSLADQAANEWGRSGKDPNHFRPAGLPEKY
Treg proliferation in suppression assays (Treg and Teff [2]; [5]): selectively enhance proliferation of Treg | Treg suppressive activity (Treg and Teff [2]; [5]): without reducing their suppressive activity | IL-1 production by monocytes compared with B cells [3]: significantly higher levels | IL-6 production by monocytes compared with B cells [3]: significantly higher levels | Treg proliferation in the absence of APC (Treg and Teff [4]): failed to induce Treg proliferation | Treg abundance in the peritoneal cavity (peritoneal Treg and Teff; 30 μg i.p. in 100 μl PBS, vs human serum albumin or endotoxin): significant increase in Treg abundance | Teff proliferation in vivo (peritoneal Treg and Teff; 30 μg i.p.): did not enhance Teff proliferation | percentage of peritoneal Treg expressing Ki-67 (peritoneal Treg and Teff; 30 μg i.p., vs controls): significantly higher percentage
